This data set in a line: soluble fraction after stress (log2 fold change); higher = more stays soluble; pooled small domains, quantitative proteomics. Conditions: stress: 50 degC. The method, boiled down: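 The stress applied to every library was 50°C. These custom libraries of small protein domains were pooled and measured at high throughput with quantitative proteomics as the read-out. Aggregation propensity is expressed as the base-two logarithm of the fold change in how much of each protein remains soluble. The higher the value, the more of that protein stays in solution.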
On to “HMSNLGLQIVRTLTDAGKGVVFITHKLKEALTIADRINVLRRGKVVGDADPKTASESQIAEMMVGRPVQL”, for which the “soluble fraction (log2)” value is -0.144.

As to “HMVFQTAAEKAYEIISKKIMKGEYEPGMRLVRRQLAQELGVSPIPILEAMKRLEQDGLIEYKAHWGSIVTI”, the “soluble fraction (log2)” value was -1.97. On to “HMQAQQYYMLLMNKATSALKIEALGANSNKAHQSFGTKTAGGSAVYWGILFNSNGKIYKIVG”, for which the “soluble fraction (log2)” value was -2.96. “HMVAPKDIVMPSFVGKKYTDVVNTPNSSYTFEFKKDEKNSSDYAVGFIMDQKPKAGETVKSNATVTLIVSK”: the “soluble fraction (log2)” value was -0.0152. In the case of “HMQDPTAVISRVLEERKHQPGALLPILHGIQDALGYVPREAVAQIAQALNLSRAEIHGVVSFYHHFR” it was -0.547.

Consider “HMDKEKLQEKLLQIFEAEPQKKFQVQDLVKVLDMEGAGQFKFVVQALADLEHNKQIKLSEDDTFSLIVKE”, for which the “soluble fraction (log2)” value came out at 0.0616. In the case of “HMSQITEADYIPNTDKTWGELMEETGESLPNLVERYNNEMTKSNGKEQPQSIIQRIIEDYQMVS” it was 0.0384. On to “HMYTGSEGMAGLEGRAVTEVGPEAGTVLVKGEYWQARSDEPIATDRKIRVIRLEGLRLRVAEIHPEG”, for which the “soluble fraction (log2)” value was -0.0371.

On to “HMENMRLILASNLRRIREERRLSLNKVSELTGVSKSMLGQIERGESNPTLQTVWKIANGLRVSLTDLTEVP”, for which the “soluble fraction (log2)” value was -0.0326.

Turning to “HMLDNHPQSKKIRALWLEMAAAGVVRDSSEQALALWVKRETGISALRWLSNEQASSVIEKLKKWQRRAAG”, the “soluble fraction (log2)” value is -0.687. In the case of “HMRLDHIFSVVERLKGVSLGAGDRLEVQKYEDLLTVYKSKNALSSEEAQTLNDILASLLKMMAKYD” it was -0.00461; in that of “HMKGPAFAKIDLTQLPAGLTSFLNTNAAGFKLDYAVAITKDSVIIEYHVGVTIGTAKKEFHLDPNFQLLP”, -0.36. As to “HMSTEAFLGTEGEVVLPLLPDGLGKIRLHVADQDVELPARTGGEPIQIRERVVVVRFRDGIAEVEPAP”, the “soluble fraction (log2)” value came out at 0.191.

Consider “HMDEPSITYGKVKVQTSLNVRQGPGTQYARIGSLGPNVRIQILGQEGQWYKIKYGNLQGYVHSDYVELEK”, for which the “soluble fraction (log2)” value is 0.0784. In the case of “HMSHISLGQRYKIEGYLQINLKRTQIAKEIGLPKKTVNQEIKRNSNPQTGIYKAEEAHQLYLDRMQKKRK” it was -0.131; in that of “HMEDKIEESLEDNISELFAKTKDKYTLINDLYSKGYTVEELSRFSGLPSGEVRLVISLNSKN”, 0.0392. On to “HMDGQPQLLIKNGQLLVSTALKNGMSANDLMFRLRTEGITDIRYVKRAVLEQNGQLTITQVGDD”, for which the “soluble fraction (log2)” value was -0.105.

For “HMSELSEVIEKTFEELPEELKLIVKLREIDDLSYDEISNKIGIPIGTVRSRLHRAREILINIIKN”, the “soluble fraction (log2)” value was -1.55. “HMVTDTGAIEKVIDEVIAANPKQVQEIADQRAAGHEKPKTLGWLVGQIMKASGGKVNPAAVNEILLKKLG”: the “soluble fraction (log2)” value was found to be 0.149. Next, “HMRLEEVSVPQRLLAAIAEEREVQIGIVDGRGGTRVLRVEPLALEGGRLRARDVESGEEFTVLIHRVLL”: -0.274; “HMGYNDQEVKSNLITLLSTSKTGLSGVEISAQLGINRVTMTKFLNVFAAEGIIKQKNIGNLNLWLVEEGTE”: -1.58. In the case of “HMTEWDDATVKDAVEYFMSVNGRVPTVTDFKKENGLPSHPVIKQRYKINLHEWLNKNFPTYY” it was -0.544. Next, “HMEKTKLPNLVDFTYRQAEALLQTHGLKVGKVERVPDVGQTVIKAKYKGKVISWGTELNKGEKIDLVIGKG”: 0.189; “HMSHSVLIDISQLRIGMYIQLDVGWMHHPFPVSSFRVASLEQIEALRTLNLAQVRYFPAKSDPV”: -3.6. “HMSYLDTLPGRRVAAQGAITGDAGTLAVDGDTWSARVEPGAPDVAPGDEVTVLRIDGATLVVRPLP”: the “soluble fraction (log2)” value was -0.0478. Next, “HMNTEKRVFAGVENTRLDHFLVEQFPEFSRTFIQQMIKSANVIVNGNIEKASYKLREGDTIMTRPM”: -0.253; “HMIRQGTKQALLIEMLQRPEGASITEIVEATSWQAHTARGAISGALKKKLGLPITSEKHPERGTVYKL”: -0.685.

For the sequence “HMEFLDQAFLHETMRKVNQDATINLLKKVYEVPQKFIGRKVTVQYDPEDLSRVYVKDLSFPEPVTVYPV”, the “soluble fraction (log2)” value is -0.0595. In the case of “HMQMSDTSMIRDLVLQVLAENPQSIEDFKNGKDRAVGFLVGMVMKKSQGKANPQITNQMIVEELKK” it was -0.104. Regarding “HMKHAIKEKIRNEYVHGYLNEEGYRVMPTLDELIRKYEVPASSTYRASSKEGWKKQKEAFLEHLRGEIDA”, the “soluble fraction (log2)” value was -0.139. As for “HMNTGIPHQEVIKKLYSFAEGGDWKGLKEELNRIKEYTLFYNSVKELADSFEINRLIEKLKTYIF”, the “soluble fraction (log2)” value came out at 0.0146. In the case of “HMKQEFEMGLPNGVGEQMLAHAIEKFDVKLEHSEFGPKLIGTYEELEKAKVFLYEAIEARLNQLE” it was -0.0154. Next, “HMTKVMVPNVVGMSRGEAEEALRGVKLQVDLKREVSDDPEVKPEEVLRQTPDAQTSVPQGSVVTLYVADKP”: 0.355; “HMNPHGVAIIDVRKGKASTLRSLATSVRSLGEWDQLKIPIFNLESLTSLVLWHGLDAIVKEPESLQSNLIL”: -0.62; “HMVAEKSKIEMAIDSINKLAKELADSGVAKKTISDIIKSVSGSANYNKITDFEVATDVYKELVALKNKEDT”: 0.384. As to “HMSKLSLREIVKKFEEQIIQLHKRGLNHSEISREIVTKNSIDLGDSHIDSLRRAISVHLQTP”, the “soluble fraction (log2)” value is -0.0999.

As for “HMYSKVSFTVSVGMTSERVSASLKALGIIDDSAKFNRYLVSNGYSTRIKVGTVELQAGQSYAEIASKLV”, the “soluble fraction (log2)” value is -0.826.

On to “HMHEIVDTVLQVKQSVEADPLIAPALKNKEIVFQLNAKGVFQFKNAVIQVASALGISKNTVYMHLRNNK”, for which the “soluble fraction (log2)” value was -1.89. Next, “HMKKVKVPNVVGMSLKEARDALSAVNIAVNQVAGSVEDKSVVTEQSLKAGDEVDEGSSLNLTTEYK”: -0.156.

With “HMKTITVEDEQAGKRLDKALAELFPHYSRSALEKLIKEGQVLVNKSFVKSKYSLKLGDEISLQFEQL”, the “soluble fraction (log2)” value came to 0.173. Regarding “HMQGEKDDLWREVLDNPDAWWDNRERKNAPGGNPRYPDFKHKDSQTPLWIESRDTPQWAIDALL”, the “soluble fraction (log2)” value amounted to 0.383. In the case of “HMSFNTNENKNLLWELMNKHNLFKDIDNQHYQEVQKLFEEEIVFISNNNKSLDLVEQNKKFLSSIITKLNK” it was -1.41. Next, “HMAEVPDLRNKTQQEAEAELTNHNLKLGNVTEEYSATVEAGRVISQSTSYGTKVLEGSSVDITISKGPEPT”: -0.0123; “HMIEIKNLSFSYGKKKQSVFNDFSLTLDKGSVYGLLGKNGTGKSTLLYLMTGLLRPQAGQVLYKGVDVS”: 0.0827.

For the sequence “HMRMLSEGAQRMLRGLAVLEEASADRLLELHQGDYPGFVRSLFALESAGLFQRNGSGTWIRR”, the “soluble fraction (log2)” value was -0.819. As for “HMQVSDEGPIKAILQEVLDKSPTQLADYASGKVKLRQYFFGEAMKALKGKANPQVINKLLDEMLPPVAA”, the “soluble fraction (log2)” value turned out to be 0.079. Next, “HMQLLDIGSAVRIIREPYFGRLGTVVELPPELMEIESGTHARVLKAKLDDGTVAVVPRANVEIIVE”: -0.171. In the case of “HMKRTRLEEAMDWLREQLNDGPVAYATLKDEAPKAEITLSTLRAAGEALRVDKQKKGVQWGGWTWSLPR” it was 0.0438. Consider “HMTSAIAEGTVIRLTQSTNIRESMSEDAPKVATAFSGEKVTVIMSYAEGWTKVTYGDKTGYIKTELL”, for which the “soluble fraction (log2)” value is -0.184.

Take “HMSEVTYQETLRLLRRAIDVLPQQSRQIILLGLSGKNNNEVAEMLGISVNTVKTLKKGAYKSLRNSL”: the “soluble fraction (log2)” value was -1.66.

“HMPQEMIEILATPNGWLRVRQGPGTNYPEITKVNSGEEFPLLEEKDSWFKIRIEEGQEGWISSQYAQKEE”: the “soluble fraction (log2)” value is -0.0402. Next, “HMIAGHLQEKKGFFYIVLSYPDAAGKRKTKWFPTKLSVKGNKKKAEVMLMDARKTFVPPETPL”: -0.501; “HMVSSAEQQARDKESGMILVQEAGGPDKARALVEKMRQDIRNPALDGTRRQMLRGHVARIELALAELETG”: 0.00436; “HMAQDIEQLEKAVSFYTRMDPAAAALSITNLDQKTAVNILMRMKDKQASAVLESMTAERSSELIDSIARK”: 0.00388.

For the sequence “HMLKDKLSDKDFDFYKNKIQIQLQGNPTELKELVRRFSSTEEQQILKTIDYMLDNGFLRIDEDNMIYWK”, the “soluble fraction (log2)” value was -0.00515.

On to “HMLERPLKLKSHYVSTIYEKVAVQYSEGEEKKSVMGTLIEVNQDTIVLDDRGTIIEIPFKSITRAKTVF”, for which the “soluble fraction (log2)” value is -0.245. Consider “HMIEFYTMQDMFYFKLTGDNTSRERREALGKILGIGYGNATQMVSRLNNYGISKEEFSKAIEEIEKQLEA”, for which the “soluble fraction (log2)” value is -2.8. In the case of “HMGPVALGVTDGATYFSSVTITFRRGTAVLDGEPIASGHTVYKSGAHSLTLTAGGKTRTIAFTMDT” it was -4.23; in that of “HMDRSLYVGDAVGFDSARGLMEIEVKNKFSVVAVSLKKKPSGNFITPLLRMEKKKGEAVTVAPGSGHR”, -0.33; in that of “HMSESEDFQNRWRPWRSLLDDETPVVREALVDQLKLFPEEGRLFLQQMSEEDDPISARHAFELIKSLGW”, -0.132.

With “HMNNFTPEHLEKDIEGSLFFRRLKETAREEPGSLTVAQKDFIQMWHDQADGVYTLRQVFVQTAFDHVRSL”, the “soluble fraction (log2)” value turned out to be 0.1. Consider “HMNAAFMKAERLLAILNILLTGKRVSSTELAKKLEVSVRTVYRDVEALSEAGFPVYATMGRDGGFGLIEGF”, for which the “soluble fraction (log2)” value was -1.95.

“HMTGMDALIGRRVFVSEEILPGDAGGRVAVDGDSWRAISVGTAKPIPAGTEVRIHGYKSLILEVEPI”: the “soluble fraction (log2)” value is -0.162. Next, “HMVDTSDLPAIVEKVFADNPEQVNDILNGKDRVKGFLVGQIMKATRGQAPPDEVNKLIDATLEKMKAA”: 0.0819; “HMEELGKVRPELDGNEIAKVLGITPGPVLGRAYTYLLSVRLDEGPIGPDVARERLLAWWAEQPES”: -1.28; “HMNAISIDEAKKIALAKVSGASDQHIRIEADHDDGRLVYEGEIHYGRVEYEFEIDGSTGAIIEWDADRK”: -0.341. Next, “HMTRNEFLTALRGRLSALPKEEQDAALKYYEEYFDEAESEEDAARQLGSPDSIAEKILADYA”: -0.17. Next, “HMPVQPMDPSIEHISALTGKQFQAFPGQDHRAHMTAHLNFMSTNIVRNNPAVMGAIQKNILEHISLMAQEQ”: 0.153.

These data come from the domain aggregation screens of Martell et al. (2025).
